Where a chain is given by its changes, count along the chain named. Numbers in names are those of the source.

In one experiment the target is human C1q (human, UniProt P02745 23-245; P02746 28-253; P02747 29-245). As to the kind of experiment: ELISA: antibody titrated onto plate-coated human TNFα (1 µg/mL), then human C1q (0.5 µg/mL), detected with rabbit anti-human C1q and HRP anti-rabbit IgG, absorbance 620 nm.
The target of another experiment is T1, CD64 (UniProt P12314 16-288, limits assumed).
T1 construct: Captured on the chip by its His-tag; also called Fcγ receptor CD64
As to the kind of experiment: SPR (Biacore), His-tagged FcγR captured on anti-His chip, antibody as analyte, 25 °C.

Another experiment has as its target T2, CD32b (UniProt P31994 43-217).
T2 construct: Captured by its His-tag
T2 sequence (looked up): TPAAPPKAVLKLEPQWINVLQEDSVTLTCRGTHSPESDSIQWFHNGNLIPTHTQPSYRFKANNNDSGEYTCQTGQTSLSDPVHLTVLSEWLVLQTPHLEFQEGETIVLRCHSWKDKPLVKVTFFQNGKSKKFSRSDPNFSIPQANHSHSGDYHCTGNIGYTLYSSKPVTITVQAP
Described as above.

Another experiment deals with T3, CD32a (H) (UniProt P12318 36-218).
T3 construct: Captured by its His-tag
T3 sequence (looked up): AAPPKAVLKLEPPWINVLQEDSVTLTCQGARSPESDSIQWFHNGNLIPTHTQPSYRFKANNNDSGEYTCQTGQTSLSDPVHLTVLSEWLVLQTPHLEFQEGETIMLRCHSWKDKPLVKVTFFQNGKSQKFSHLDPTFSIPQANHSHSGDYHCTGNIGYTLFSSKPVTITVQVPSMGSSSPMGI
Described as above.

In experiment [1] the target is T4, human TNFα (human, UniProt P01375 77-233).
T4 construct: also called recombinant TNFα
Nature of the experiment: SPR (Biacore), antibody captured on Protein A, TNFα as analyte, single cycle kinetics, 25 °C.
Description: Affinity to TNFα was measured by Biacore. A CM5 chip was prepared using standard amine immobilisation Biacore procedures. Upon insertion of a CM5 chip the system was primed and then normalised with BIA-normalising solution (Biacore Preventative Maintenance Kit 2). The chip was added to the system with PBS-T running buffer; prior to immobilisation the chip surface was primed with three injections of 50 mM NaOH. Protein A was immobilised on the chip surface. For this, the protein was diluted to 5 μg/mL into 10 mM acetate buffer at pH 4.5 and injected so to generate a bound response of ˜1000 RU's in all 4 flow cells. To remove non-covalently bound material from all the chip flow cells, three 15 second 50 mM NaOH washes were performed. On the Protein A chip, antibody was captured in flow cells 2 and 4, with flow cells 1 and 3 used for reference subtraction. The trial antibodies were diluted in PBS-T to 10 nM and 2.5-7.5 uL injected to obtain 120 RU of captured antibody. The analyte TNFα was prepared at 500 μg/mL in water as directed by the supplier and further diluted into the running buffer Phosphate Buffered Saline Tween-20 (PBS-T). Single cycle kinetics was used to estimate the steady state affinity. For each single cycle analysis cycle a titration of 5 analyte concentrations were injected over the ligand and then the dissociation of the complex was measured. The surface was regenerated using glycine pH 1.7. A double referencing method was employed in which data from the ligand bound capture surface (fc 2 and 4) were subtracted from the references surfaces where no ligand was captured (fc 1 and 3 respectively). Blank injections of buffer were run every 3-4 cycles and then subtracted from analyte injection cycles, to correct for small changes in the ligand capture surface. Repeat injections of analyte at the start and end of each analytical run were used to check for sample degradation, or changes in the instrument performance. All analysis was performed at 25° C. and the sample rack was incubated at 10° C. during experimental runs. Each experiment was run at least three times. A 1-to-1 binding model was used to fit the resulting kinetic data.

In experiment [2] the target is T5, monomeric His-tagged human FcRn (human, UniProt P55899 24-297; P61769 21-119, limits assumed).
T5 construct: also called hFcRn
Nature of the experiment: SPR (Biacore 3000) at pH 6.0, antibody amine-coupled, monomeric His-tagged hFcRn as analyte, 25 °C; pH 6.0.
Description: (§1) SPR was performed using a Biacore 3000 instrument with CM5 sensor chips coupled with anti-TNFα IgG1 antibodies (˜500 resonance units (RU)) using amine-coupling chemistry as described by the manufacturer. The coupling was performed by injecting 2.0 ug/mL of each protein in 10 mM sodium acetate, pH 4.5, using the amine-coupling kit (GE Healthcare). […] All SPR experiments were conducted at 25° C. with a flow rate of 40 ul/min. Binding data were zero-adjusted, and reference cell value subtracted. The Langmuir 1:1 ligand binding model provided by the BIAevaluation software (version 4.1) was used to determine the binding kinetics.

The target of experiment [3] is T6, CD16a (V) (UniProt P08637 17-208).
T6 construct: Captured by its His-tag
Nature of the experiment: SPR (Biacore), His-tagged FcγR captured on anti-His chip, antibody as analyte, 25 °C.
Description: (§2) Affinity to FcγRs was measured by Biacore. A CM5 chip was prepared using standard amine immobilisation Biacore procedures. Upon insertion of a CM5 chip the system was primed and then normalised with BIA-normalizing solution (Biacore Preventative Maintenance Kit 2). The chip was added to the system with PBS-T running buffer; prior to immobilisation the chip surface was primed with three injections of 50 mM NaOH. FcγRs were immobilised on the chip surface using a His-tag capture system. The anti-His tag chip was prepared according to the Biacore kit instructions, with ˜12000 RU's of the antibody deposited on all 4 flow cells. To remove non-covalently bound material from all the chip flow cells, three 30 second 10 mM glycine pH 1.5 washes were performed. The Fcγ receptors were diluted in PBS-T to a range of 0.5-2 μg/mL, with 2.5-5.0 μL injected onto the chip generating capture levels between 60 and 200 RU's. Antibodies were diluted into PBS-T prior to analysis. Single cycle kinetics were used to estimate the steady state affinity. For each single cycle analysis cycle a titration of 5 antibody concentrations were injected over the FcγR ligand and then the dissociation of the complex was measured. The surface was regenerated using the recommended solution, 10 mM glycine pH 1.5 for the anti-His capture surface. A double referencing method was employed in which data from the ligand bound capture surface (fc 2 and 4) were subtracted from the references surfaces where no ligand was captured (fc 1 and 3 respectively). Blank injections of buffer were run for every antibody titration cycle and then subtracted from analyte injection cycles, to correct for small changes in the ligand capture surface. All analysis was performed at 25° C. and the sample rack was incubated at 10° C. during experimental runs. Each experiment was run at least three times.
(§3) The mean and standard deviation affinity calculated from two or more independent experiments is shown.

The target in experiment [4] is T5, monomeric His-tagged human FcRn. Nature of the experiment: SPR at pH 6.0, KD against that of Ab-wt; pH 6.0; fold change from Ab-wt.
Description: as §1
The target is the same in experiment [5]. As to the kind of experiment: SPR at pH 6.0, KD against that of IFX; pH 6.0; fold change from IFX.
Description: as §1
For the next experiment, the target named is T7, CD32a (R) (UniProt P12318 36-218).
T7 construct: Captured by its His-tag
T7 sequence (looked up): T3 sequence (looked up) with H132R
As to the kind of experiment: SPR (Biacore), His-tagged FcγR captured on anti-His chip, antibody as analyte, 25 °C.

For experiment [6], the target named is T6, CD16a (V). Nature of the experiment: SPR (Biacore), His-tagged FcγR captured; the sentence names no reference (Ab-wt by Table 5).
Description: Affinity to FcγRs was measured by Biacore. A CM5 chip was prepared using standard amine immobilisation Biacore procedures. Upon insertion of a CM5 chip the system was primed and then normalised with BIA-normalizing solution (Biacore Preventative Maintenance Kit 2). The chip was added to the system with PBS-T running buffer; prior to immobilisation the chip surface was primed with three injections of 50 mM NaOH. FcγRs were immobilised on the chip surface using a His-tag capture system. The anti-His tag chip was prepared according to the Biacore kit instructions, with ˜12000 RU's of the antibody deposited on all 4 flow cells. To remove non-covalently bound material from all the chip flow cells, three 30 second 10 mM glycine pH 1.5 washes were performed. The Fcγ receptors were diluted in PBS-T to a range of 0.5-2 μg/mL, with 2.5-5.0 μL injected onto the chip generating capture levels between 60 and 200 RU's. Antibodies were diluted into PBS-T prior to analysis. Single cycle kinetics were used to estimate the steady state affinity. For each single cycle analysis cycle a titration of 5 antibody concentrations were injected over the FcγR ligand and then the dissociation of the complex was measured. The surface was regenerated using the recommended solution, 10 mM glycine pH 1.5 for the anti-His capture surface. […]
The target of a further experiment is T8, CD16a (F) (UniProt P08637 17-208).
T8 construct: Captured by its His-tag
Nature of the experiment: SPR (Biacore), His-tagged FcγR captured on anti-His chip, antibody as analyte, 25 °C.

Another experiment deals with T9, CD16b (NA2) (UniProt O75015 17-200, limits assumed).
T9 construct: Captured by its His-tag
The experiment is described as above.

Experiment [7] deals with T4, human TNFα. As to the kind of experiment: cell-based or functional assay.

T4 sequence (P01375 77-233 limits assumed): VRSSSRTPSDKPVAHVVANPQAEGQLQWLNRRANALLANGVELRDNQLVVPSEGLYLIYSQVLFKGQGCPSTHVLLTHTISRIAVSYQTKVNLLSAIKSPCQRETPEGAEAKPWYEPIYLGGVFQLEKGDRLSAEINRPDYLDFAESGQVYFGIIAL
T6 sequence (P08637 17-208 F176V limits assumed): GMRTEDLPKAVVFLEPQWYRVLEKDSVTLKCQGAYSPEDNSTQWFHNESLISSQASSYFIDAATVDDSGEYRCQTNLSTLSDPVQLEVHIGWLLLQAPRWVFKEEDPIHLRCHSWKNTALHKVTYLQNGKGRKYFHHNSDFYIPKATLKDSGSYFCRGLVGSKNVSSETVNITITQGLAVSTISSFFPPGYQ
T5 sequence (P55899 24-297 limits assumed, chain 1 of 2): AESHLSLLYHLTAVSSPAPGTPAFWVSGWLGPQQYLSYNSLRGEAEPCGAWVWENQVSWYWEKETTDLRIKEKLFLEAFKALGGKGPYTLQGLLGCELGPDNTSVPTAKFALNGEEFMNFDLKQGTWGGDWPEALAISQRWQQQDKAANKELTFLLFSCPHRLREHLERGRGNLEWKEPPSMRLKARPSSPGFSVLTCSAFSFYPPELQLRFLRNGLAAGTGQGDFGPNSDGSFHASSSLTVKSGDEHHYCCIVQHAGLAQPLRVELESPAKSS
T5 sequence (P61769 21-119 limits assumed, chain 2 of 2): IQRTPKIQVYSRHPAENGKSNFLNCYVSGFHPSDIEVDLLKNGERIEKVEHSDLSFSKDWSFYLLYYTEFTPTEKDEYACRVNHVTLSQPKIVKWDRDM
T1 sequence (P12314 16-288 limits assumed): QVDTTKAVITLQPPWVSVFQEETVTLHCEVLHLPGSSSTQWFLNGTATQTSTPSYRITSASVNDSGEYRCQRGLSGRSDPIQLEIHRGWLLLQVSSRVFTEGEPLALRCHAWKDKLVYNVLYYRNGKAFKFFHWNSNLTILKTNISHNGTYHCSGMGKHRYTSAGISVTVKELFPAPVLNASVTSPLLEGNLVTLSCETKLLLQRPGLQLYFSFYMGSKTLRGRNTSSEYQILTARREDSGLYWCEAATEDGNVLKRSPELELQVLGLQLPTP
Sequence of human C1q (P02745 23-245 limits assumed, chain 1 of 3): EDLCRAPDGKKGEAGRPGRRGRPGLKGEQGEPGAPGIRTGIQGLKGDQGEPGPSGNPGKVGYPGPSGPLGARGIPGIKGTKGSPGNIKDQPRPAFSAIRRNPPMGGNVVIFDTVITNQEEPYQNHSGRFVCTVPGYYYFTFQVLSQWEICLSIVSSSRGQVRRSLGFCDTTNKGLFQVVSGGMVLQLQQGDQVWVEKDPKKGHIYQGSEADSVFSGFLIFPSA
Sequence of human C1q (P02746 28-253 limits assumed, chain 2 of 3): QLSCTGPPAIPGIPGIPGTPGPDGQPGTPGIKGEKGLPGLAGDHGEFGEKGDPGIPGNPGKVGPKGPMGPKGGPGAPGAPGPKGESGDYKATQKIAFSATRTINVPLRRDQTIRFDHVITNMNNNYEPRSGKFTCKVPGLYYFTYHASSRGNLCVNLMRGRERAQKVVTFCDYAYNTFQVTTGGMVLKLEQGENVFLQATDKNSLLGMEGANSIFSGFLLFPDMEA
Sequence of human C1q (P02747 29-245 limits assumed, chain 3 of 3): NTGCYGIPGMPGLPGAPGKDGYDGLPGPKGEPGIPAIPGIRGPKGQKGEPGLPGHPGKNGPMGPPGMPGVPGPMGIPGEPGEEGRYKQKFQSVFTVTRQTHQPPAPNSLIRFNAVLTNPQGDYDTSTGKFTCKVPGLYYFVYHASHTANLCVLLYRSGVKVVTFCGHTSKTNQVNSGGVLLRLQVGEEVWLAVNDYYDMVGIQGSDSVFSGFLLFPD
T8 sequence (P08637 17-208 limits assumed): as the sequence (P08637 17-208 F176V limits assumed) above, with V160F counted along it
T9 sequence (O75015 17-200 N65S limits assumed): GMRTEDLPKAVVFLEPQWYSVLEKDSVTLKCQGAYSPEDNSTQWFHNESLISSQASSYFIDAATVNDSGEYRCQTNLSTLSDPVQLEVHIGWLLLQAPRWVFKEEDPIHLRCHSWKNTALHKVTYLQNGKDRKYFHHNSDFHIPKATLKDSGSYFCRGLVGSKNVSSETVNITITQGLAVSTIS
Description for CD16a (F): as §2, §3
Description for CD16b (NA2): as §2, §3
Description for CD32a (H): as §2
Description for CD32a (R): as §2
Description for CD32b: as §2
Description for CD64: as §2
Description for human C1q: ELISA was performed using 96-well MaxiSorp plates where the wells were coated with human TNFα diluted to 1 μg/mL in PBS. After incubation O/N at 4° C., the plates were blocked with PBS containing 4% skimmed milk for 1 h and washed four times with PBS containing 0.05% Tween-20 (PBS-T). Then, titrated amounts of the anti-TNFα IgG antibodies were diluted in PBS-T, added and incubated for 1h at RT. After washing using PBS-T, human C1q (0.5 μg/mL) was diluted in 0.1 M Veronal buffer (0.25 mM CaCl₂ and 0.8 mM MgCl₂ pH 7.2), added to the wells and incubated for 1 h. Subsequently, the wells were washed as above before rabbit anti-human C1q diluted 1:5000 in PBS-T was added to the wells and incubated for 1 h. After washing, an HRP-conjugated anti-rabbit IgG from donkey diluted 1:5000 in PBS-T was added. Subsequently, the wells were washed and 100 μL 3,3′,5,5′-Tetramethylbenzidine substrate was added to each well. The absorbance was measured at 620 nm using a Sunrise spectrophotometer.
The anti-TNFα antibody variants were captured on human TNFα before human C1q was added.

B1: infliximab (antibody)
chain 1: not shown
chain 2: DILLTQSPAILSVSPGERVSFSCRASQFVGSSIHWYQQRTNGSPRLLIKYASESMSGIPSRFSGSGSGTDFTLSINTVESEDIADYYCQQSHSWPFTFGSGTNLEVKRTVAAPSVFIFPPSDEQLKSGTASVVCLLNNFYPREAKVQWKVDNALQSGNSQESVTEQDSKDSTYSLSSTLTLSKADYEKHKVYACEVTHQGLSSPVTKSFNRGEC
As to B1, the “EC50 (read off the curve)” value with human C1q is approximately 0.6 µg/mL.

B2: Ab-wt (antibody, human IgG1, kappa)
heavy: not shown
light: DIQMTQSPSSLSASVGDRVTIKCQASQSIFSGLAWYQQKPGKAPKLLIYGASKLASGVPSRFSGSGSGTEFTLTISGLQPADFATYYCQSYYYSSSSSDGSYAFGGGTKLTVLGRTVAAPSVFIFPPSDEQLKSGTASVVCLLNNFYPREAKVQWKVDNALQSGNSQESVTEQDSKDSTYSLSSTLTLSKADYEKHKVYACEVTHQGLSSPVTKSFNRGEC
notes: Human IgG1 anti-TNFα antibody with wild-type Fc; also called parent antibody; wild-type antibody
On to B2, for which the Kd with CD64 is 2.92 nM; with CD32b, 3140 nM; with CD32a (H), 670 nM; with human TNFα [1], 0.00413 nM; in [2] it was 1000 nM; with CD16a (V) [3], 184 nM. In the experiment with human TNFα [1], this molecule had a koff of 3.45e-05 s⁻¹. This molecule also returned an on-rate constant (kon) with human TNFα [1] of 8.37e+06 M⁻¹ s⁻¹.

B3: Ab-AA-2FF (antibody, human IgG1, kappa)
heavy: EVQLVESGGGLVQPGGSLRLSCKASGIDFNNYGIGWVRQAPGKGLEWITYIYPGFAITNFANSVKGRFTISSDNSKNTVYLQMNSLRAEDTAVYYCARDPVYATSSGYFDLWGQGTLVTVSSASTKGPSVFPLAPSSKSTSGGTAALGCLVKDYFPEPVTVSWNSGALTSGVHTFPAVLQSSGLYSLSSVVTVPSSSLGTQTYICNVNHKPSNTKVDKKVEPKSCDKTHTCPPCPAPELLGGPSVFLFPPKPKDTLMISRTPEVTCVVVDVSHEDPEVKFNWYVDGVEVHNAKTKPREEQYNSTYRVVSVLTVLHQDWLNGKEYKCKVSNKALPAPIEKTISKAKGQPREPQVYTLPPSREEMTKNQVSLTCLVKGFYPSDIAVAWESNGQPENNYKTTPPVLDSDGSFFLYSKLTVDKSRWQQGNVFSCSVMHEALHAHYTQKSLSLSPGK
light: B2 light
modifications: N-glycans at N297 (EU) with greatly reduced fucose (<10% fucosylated); produced in the presence of 2-deoxy-2-fluoro-fucose (2FF)
notes: human IgG1; also called non-fucosylated variant of Ab-AA
For B3, the “Fold change from wt” value in experiment [4] turned out to be 9.7 fold. The “Fold change from IFX” value in [5] was found to be 4.1 fold. Also, the Kd in the experiment with CD64 came out at 3.17 nM; with CD32b it was 1370 nM; in the experiment with CD32a (R), 1560 nM; with CD32a (H) it was 1170 nM; with human TNFα [1], 0.00773 nM; in experiment [2], 103 nM. The Kd with CD16a (F) was determined as 170 nM; with CD16a (V) [3] it was 39.4 nM; in the experiment with CD16b (NA2), 470 nM. This molecule also came in with a koff in the experiment with human TNFα [1] of 5.84e-05 s⁻¹. The kon with human TNFα [1] is 7.55e+06 M⁻¹ s⁻¹. Moreover, the “fold increase in affinity” value in the experiment with CD16a (V) [6] was 4.7 fold. The “IC50 (read off the curve)” value with human TNFα [7] is approximately 0.008 µg/mL. The “EC50 (read off the curve)” value with human C1q is approximately 0.7 µg/mL.

B4: Ab-AA (antibody, human IgG1, kappa)
heavy: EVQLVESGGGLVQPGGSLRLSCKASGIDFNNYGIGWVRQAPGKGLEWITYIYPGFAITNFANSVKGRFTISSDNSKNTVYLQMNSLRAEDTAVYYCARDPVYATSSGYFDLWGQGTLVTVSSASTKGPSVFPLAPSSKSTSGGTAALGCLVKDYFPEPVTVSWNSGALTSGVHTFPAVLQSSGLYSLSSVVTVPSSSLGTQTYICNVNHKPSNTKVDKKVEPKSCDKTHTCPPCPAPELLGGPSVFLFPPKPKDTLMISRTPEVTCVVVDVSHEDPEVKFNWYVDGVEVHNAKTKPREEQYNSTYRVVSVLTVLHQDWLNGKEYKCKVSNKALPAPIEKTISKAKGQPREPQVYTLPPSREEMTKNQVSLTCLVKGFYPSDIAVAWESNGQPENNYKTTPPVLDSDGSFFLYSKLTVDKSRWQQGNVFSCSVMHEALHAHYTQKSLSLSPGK
light: B2 light
notes: Human IgG1; also called E380A/N434A variant
As to B4, the “Fold change from wt” value in [4] turned out to be 8.4 fold. In experiment [5], the “Fold change from IFX” value was found to be 3.6 fold. Also, the dissociation constant (Kd) worked out at 3.59 nM with CD64; 2170 nM with CD32b; 2050 nM with CD32a (R); 1410 nM with CD32a (H); 0.00247 nM with human TNFα [1]; 119 nM in experiment [2]. Also, the Kd was 1760 nM with CD16a (F), 707 nM with CD16a (V) [3] and 2240 nM in the experiment with CD16b (NA2). In addition, the dissociation rate constant (koff) with human TNFα [1] amounted to 2.06e-05 s⁻¹. The same molecule displayed a kon in the experiment with human TNFα [1] of 8.54e+06 M⁻¹ s⁻¹. For the same molecule, the “IC50 (read off the curve)” value with human TNFα [7] was approximately 0.008 µg/mL. In the experiment with human C1q, the 50% effective concentration (EC50 (read off the curve)) is approximately 0.6 µg/mL.

The values above are taken from patent US20200255511A1 (TILLOTTS PHARMA, published 2020).
